From the supplement of paper PMC10065799, “High-throughput profiling of sequence recognition by tyrosine kinases and SH2 domains using bacterial peptide display” (eLife, 2023)

biological target: FGFR1 (UniProt P11362); experiment: phosphorylation enrichment, bacterial display (enrichment ratio); higher = better substrate or ligand; peptides without Tyr show the background
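Further: 11-residue human phosphosite peptides and single-mutation variants displayed on the E. coli surface, counted by deep sequencing, each peptide's frequency after selection divided by its frequency in the unselected input library; frequency after pTyr selection over input frequency; kinase dosed for 20-30% of maximal phosphorylation in three min.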

Sequence of FGFR1 (P11362 whole entry, looked up): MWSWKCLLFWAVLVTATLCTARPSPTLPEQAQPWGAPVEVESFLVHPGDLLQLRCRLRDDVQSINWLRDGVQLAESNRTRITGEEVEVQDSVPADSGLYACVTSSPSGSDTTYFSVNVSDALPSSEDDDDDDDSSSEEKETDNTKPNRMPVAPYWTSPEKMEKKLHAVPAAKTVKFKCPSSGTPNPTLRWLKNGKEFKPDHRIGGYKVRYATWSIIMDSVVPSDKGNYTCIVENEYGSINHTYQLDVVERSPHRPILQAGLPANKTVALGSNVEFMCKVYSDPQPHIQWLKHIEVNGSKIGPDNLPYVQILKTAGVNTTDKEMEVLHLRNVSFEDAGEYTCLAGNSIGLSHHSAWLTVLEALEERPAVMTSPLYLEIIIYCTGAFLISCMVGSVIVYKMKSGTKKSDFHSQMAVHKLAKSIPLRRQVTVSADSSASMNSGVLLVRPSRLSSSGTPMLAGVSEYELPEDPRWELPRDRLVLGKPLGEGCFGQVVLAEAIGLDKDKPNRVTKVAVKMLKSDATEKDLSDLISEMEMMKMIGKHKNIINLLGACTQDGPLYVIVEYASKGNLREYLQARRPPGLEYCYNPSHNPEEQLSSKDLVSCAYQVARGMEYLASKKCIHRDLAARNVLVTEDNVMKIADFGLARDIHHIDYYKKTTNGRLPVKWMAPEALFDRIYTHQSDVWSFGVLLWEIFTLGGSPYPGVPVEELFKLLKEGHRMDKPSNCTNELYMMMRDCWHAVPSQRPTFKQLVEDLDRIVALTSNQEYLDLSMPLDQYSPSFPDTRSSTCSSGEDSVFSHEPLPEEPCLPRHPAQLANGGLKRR

First: DDPRTYQKYGY [OAS1_Y362_R361T]
Second: VPVNGYQPVTA [ROR2_Y824_P828T]
The phosphorylation enrichment of the first is higher: 0.446 for the first, 0.375 for the second.

First: RSSNTYTLMDV [ALCAM_Y298_T301M]
Second: EDASEYYENYI [PARP4_Y214_F215Y]
The phosphorylation enrichment of the first is lower: 1.26 for the first, 1.66 for the second.

First: HSKGIYYVQLE [MGAT4B_Y262_Q257H]
Second: KYVVVYFRETD [IL17RB_Y447_I451T]
The phosphorylation enrichment of the first is higher: 5.54 for the first, 0.459 for the second.

Compared with RELGKYGLQAY [ALDH2_Y497_E496K], INNIDYFKNTT [FGFR2_Y656_K659N_YF] is lower in phosphorylation enrichment: 0.426 for the first, 0.377 for the second.

Compared with DMQTLYVNTAA [SMCHD1_Y403], SVVAPYEPPEV [TP53_Y220_V218A] is higher in phosphorylation enrichment: 0.471 for the first, 0.528 for the second.

First: NKPTVCGVSPN [ABL1_Y226_Y226C]
Second: RRAKGYPINLF [ITGB2_Y125_D128N_YF]
The phosphorylation enrichment of the first is higher: 0.526 for the first, 0.448 for the second.

First: CPTIHYNYMCN [TP53_Y234_T230P]
Second: ISDDKYGRIRL [ARCN1_Y310]
The phosphorylation enrichment of the first is higher: 0.54 for the first, 0.407 for the second.

Going from MECLPYGSLRD [JAK2_Y934_Y931C] to MPIPMYDASQA [CARMIL1_Y637], the phosphorylation enrichment rises from 0.522 to 0.595.

First: CTLSVYRQLHN [LUZP1_Y1036]
Second: YSKDIYKRVTG [PANK2_Y405_N404I]
The phosphorylation enrichment of the first is higher: 0.513 for the first, 0.409 for the second.

Going from ILGRTHFVNHE [NEDD4_Y627_Y627H_YF] to VVIMLYGVDSR [PKD1_Y3143_G3139V], the phosphorylation enrichment rises from 0.397 to 0.545.

First: HHTDEYEYDEL [TGM1_Y134]
Second: RKPDIYGRLAS [MCM4_Y459_E460G]
The phosphorylation enrichment of the first is higher: 1.02 for the first, 0.757 for the second.

Going from RPGSGYTNIMQ [PKLR_Y564_R569Q] to YIIFIYAMKKK [SLCO1B1_Y645_L643F], the phosphorylation enrichment falls from 0.763 to 0.655.

First: LFDPDFMKVIL [CYP4A22_Y104_Y104F_YF]
Second: SHLSSYTTHPQ [NIPBL_Y195_P192L]
The phosphorylation enrichment of the first is higher: 1.15 for the first, 0.435 for the second.

First: QEITTYRRLLE [KRT14_Y415_A413T]
Second: HEKKVYSFCGT [RPS6KA3_Y226_A225V]
The phosphorylation enrichment of the first is lower: 0.657 for the first, 0.74 for the second.

Going from KAFDMYSGDVM [FAM3D_Y122] to VATRWYQSPEL [CDKL5_Y177_R178Q], the phosphorylation enrichment rises from 0.593 to 0.88.

Compared with DNEAIYDICRC [TUBA4A_Y210_R215C], YQGGTYSKAST [FGG_Y380] is lower in phosphorylation enrichment: 0.633 for the first, 0.423 for the second.

DPEATYTTSGS [EPHA2_Y772_G777S] gave a phosphorylation enrichment of 0.425.

biological target: Fyn (UniProt P06241); experiment: as above
Sequence (P06241 whole entry, looked up): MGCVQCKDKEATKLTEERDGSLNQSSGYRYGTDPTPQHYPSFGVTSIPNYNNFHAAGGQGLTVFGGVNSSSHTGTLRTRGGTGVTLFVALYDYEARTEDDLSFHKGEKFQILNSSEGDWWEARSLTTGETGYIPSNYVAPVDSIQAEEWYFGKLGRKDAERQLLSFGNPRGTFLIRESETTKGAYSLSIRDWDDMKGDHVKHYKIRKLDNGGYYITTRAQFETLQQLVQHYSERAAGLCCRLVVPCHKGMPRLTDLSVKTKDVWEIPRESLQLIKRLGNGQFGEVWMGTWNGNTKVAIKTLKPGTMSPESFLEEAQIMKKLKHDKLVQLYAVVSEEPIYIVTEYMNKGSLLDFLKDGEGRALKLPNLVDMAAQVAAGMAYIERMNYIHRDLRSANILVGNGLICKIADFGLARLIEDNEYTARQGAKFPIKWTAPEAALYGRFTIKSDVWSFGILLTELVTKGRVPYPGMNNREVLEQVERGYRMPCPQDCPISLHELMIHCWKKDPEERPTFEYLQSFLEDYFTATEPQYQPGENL

Going from DDPRTYQKYGY [OAS1_Y362_R361T] to VPVNGYQPVTA [ROR2_Y824_P828T], the phosphorylation enrichment rises from 0.43 to 0.541.

First: RSSNTYTLMDV [ALCAM_Y298_T301M]
Second: EDASEYYENYI [PARP4_Y214_F215Y]
The phosphorylation enrichment of the first is higher: 1.55 for the first, 0.738 for the second.

First: HSKGIYYVQLE [MGAT4B_Y262_Q257H]
Second: KYVVVYFRETD [IL17RB_Y447_I451T]
The phosphorylation enrichment of the first is higher: 3.29 for the first, 0.43 for the second.

First: RELGKYGLQAY [ALDH2_Y497_E496K]
Second: INNIDYFKNTT [FGFR2_Y656_K659N_YF]
The phosphorylation enrichment of the first is higher: 0.464 for the first, 0.393 for the second.

Going from DMQTLYVNTAA [SMCHD1_Y403] to SVVAPYEPPEV [TP53_Y220_V218A], the phosphorylation enrichment rises from 0.485 to 0.67.

First: NKPTVCGVSPN [ABL1_Y226_Y226C]
Second: RRAKGYPINLF [ITGB2_Y125_D128N_YF]
The phosphorylation enrichment of the first is higher: 0.439 for the first, 0.435 for the second.

First: CPTIHYNYMCN [TP53_Y234_T230P]
Second: ISDDKYGRIRL [ARCN1_Y310]
The phosphorylation enrichment of the first is higher: 0.594 for the first, 0.434 for the second.

First: MECLPYGSLRD [JAK2_Y934_Y931C]
Second: MPIPMYDASQA [CARMIL1_Y637]
The phosphorylation enrichment of the first is higher: 0.753 for the first, 0.643 for the second.

First: CTLSVYRQLHN [LUZP1_Y1036]
Second: YSKDIYKRVTG [PANK2_Y405_N404I]
The phosphorylation enrichment of the first is higher: 0.466 for the first, 0.415 for the second.

First: ILGRTHFVNHE [NEDD4_Y627_Y627H_YF]
Second: VVIMLYGVDSR [PKD1_Y3143_G3139V]
The phosphorylation enrichment of the first is lower: 0.476 for the first, 0.592 for the second.

First: HHTDEYEYDEL [TGM1_Y134]
Second: RKPDIYGRLAS [MCM4_Y459_E460G]
The phosphorylation enrichment of the first is lower: 1.01 for the first, 4.7 for the second.

First: RPGSGYTNIMQ [PKLR_Y564_R569Q]
Second: YIIFIYAMKKK [SLCO1B1_Y645_L643F]
The phosphorylation enrichment of the first is higher: 0.469 for the first, 0.343 for the second.

First: LFDPDFMKVIL [CYP4A22_Y104_Y104F_YF]
Second: SHLSSYTTHPQ [NIPBL_Y195_P192L]
The phosphorylation enrichment of the first is higher: 0.899 for the first, 0.451 for the second.

First: QEITTYRRLLE [KRT14_Y415_A413T]
Second: HEKKVYSFCGT [RPS6KA3_Y226_A225V]
The phosphorylation enrichment of the first is higher: 0.708 for the first, 0.58 for the second.

First: KAFDMYSGDVM [FAM3D_Y122]
Second: VATRWYQSPEL [CDKL5_Y177_R178Q]
The phosphorylation enrichment of the first is higher: 0.846 for the first, 0.43 for the second.

Going from DNEAIYDICRC [TUBA4A_Y210_R215C] to YQGGTYSKAST [FGG_Y380], the phosphorylation enrichment falls from 9.3 to 0.449.

DPEATYTTSGS [EPHA2_Y772_G777S] gave a phosphorylation enrichment of 0.518.

system: AncSZ; experiment: as above

First: DDPRTYQKYGY [OAS1_Y362_R361T]
Second: VPVNGYQPVTA [ROR2_Y824_P828T]
The phosphorylation enrichment of the first is higher: 0.74 for the first, 0.492 for the second.

Compared with RSSNTYTLMDV [ALCAM_Y298_T301M], EDASEYYENYI [PARP4_Y214_F215Y] is higher in phosphorylation enrichment: 1.01 for the first, 1.93 for the second.

First: HSKGIYYVQLE [MGAT4B_Y262_Q257H]
Second: KYVVVYFRETD [IL17RB_Y447_I451T]
The phosphorylation enrichment of the first is lower: 1.28 for the first, 1.36 for the second.

First: RELGKYGLQAY [ALDH2_Y497_E496K]
Second: INNIDYFKNTT [FGFR2_Y656_K659N_YF]
The phosphorylation enrichment of the first is higher: 0.683 for the first, 0.471 for the second.

Compared with DMQTLYVNTAA [SMCHD1_Y403], SVVAPYEPPEV [TP53_Y220_V218A] is higher in phosphorylation enrichment: 0.647 for the first, 1.34 for the second.

Compared with NKPTVCGVSPN [ABL1_Y226_Y226C], RRAKGYPINLF [ITGB2_Y125_D128N_YF] is lower in phosphorylation enrichment: 0.655 for the first, 0.49 for the second.

Going from CPTIHYNYMCN [TP53_Y234_T230P] to ISDDKYGRIRL [ARCN1_Y310], the phosphorylation enrichment falls from 0.843 to 0.484.

Going from MECLPYGSLRD [JAK2_Y934_Y931C] to MPIPMYDASQA [CARMIL1_Y637], the phosphorylation enrichment falls from 1.08 to 0.751.

Going from CTLSVYRQLHN [LUZP1_Y1036] to YSKDIYKRVTG [PANK2_Y405_N404I], the phosphorylation enrichment falls from 1.1 to 0.5.

Compared with ILGRTHFVNHE [NEDD4_Y627_Y627H_YF], VVIMLYGVDSR [PKD1_Y3143_G3139V] is higher in phosphorylation enrichment: 0.633 for the first, 1.29 for the second.

First: HHTDEYEYDEL [TGM1_Y134]
Second: RKPDIYGRLAS [MCM4_Y459_E460G]
The phosphorylation enrichment of the first is higher: 2.01 for the first, 0.628 for the second.

First: RPGSGYTNIMQ [PKLR_Y564_R569Q]
Second: YIIFIYAMKKK [SLCO1B1_Y645_L643F]
The phosphorylation enrichment of the first is higher: 0.775 for the first, 0.602 for the second.

Compared with LFDPDFMKVIL [CYP4A22_Y104_Y104F_YF], SHLSSYTTHPQ [NIPBL_Y195_P192L] is lower in phosphorylation enrichment: 2.44 for the first, 0.569 for the second.

Compared with QEITTYRRLLE [KRT14_Y415_A413T], HEKKVYSFCGT [RPS6KA3_Y226_A225V] is lower in phosphorylation enrichment: 1.03 for the first, 0.991 for the second.

First: KAFDMYSGDVM [FAM3D_Y122]
Second: VATRWYQSPEL [CDKL5_Y177_R178Q]
The phosphorylation enrichment of the first is lower: 0.832 for the first, 1 for the second.

Compared with DNEAIYDICRC [TUBA4A_Y210_R215C], YQGGTYSKAST [FGG_Y380] is lower in phosphorylation enrichment: 3.65 for the first, 0.867 for the second.

With DPEATYTTSGS [EPHA2_Y772_G777S] the phosphorylation enrichment was 0.889.

system: c-Src; experiment: as above

Compared with DDPRTYQKYGY [OAS1_Y362_R361T], VPVNGYQPVTA [ROR2_Y824_P828T] is lower in phosphorylation enrichment: 0.549 for the first, 0.309 for the second.

Going from RSSNTYTLMDV [ALCAM_Y298_T301M] to EDASEYYENYI [PARP4_Y214_F215Y], the phosphorylation enrichment falls from 1.58 to 1.02.

Going from HSKGIYYVQLE [MGAT4B_Y262_Q257H] to KYVVVYFRETD [IL17RB_Y447_I451T], the phosphorylation enrichment falls from 4.78 to 0.491.

First: RELGKYGLQAY [ALDH2_Y497_E496K]
Second: INNIDYFKNTT [FGFR2_Y656_K659N_YF]
The phosphorylation enrichment of the first is higher: 0.356 for the first, 0.301 for the second.

Going from DMQTLYVNTAA [SMCHD1_Y403] to SVVAPYEPPEV [TP53_Y220_V218A], the phosphorylation enrichment rises from 0.418 to 0.672.

First: NKPTVCGVSPN [ABL1_Y226_Y226C]
Second: RRAKGYPINLF [ITGB2_Y125_D128N_YF]
The phosphorylation enrichment of the first is lower: 0.5 for the first, 0.554 for the second.

Going from CPTIHYNYMCN [TP53_Y234_T230P] to ISDDKYGRIRL [ARCN1_Y310], the phosphorylation enrichment rises from 0.462 to 0.56.

First: MECLPYGSLRD [JAK2_Y934_Y931C]
Second: MPIPMYDASQA [CARMIL1_Y637]
The phosphorylation enrichment of the first is higher: 1.65 for the first, 0.46 for the second.

First: CTLSVYRQLHN [LUZP1_Y1036]
Second: YSKDIYKRVTG [PANK2_Y405_N404I]
The phosphorylation enrichment of the first is higher: 0.412 for the first, 0.394 for the second.

Going from ILGRTHFVNHE [NEDD4_Y627_Y627H_YF] to VVIMLYGVDSR [PKD1_Y3143_G3139V], the phosphorylation enrichment rises from 0.377 to 0.524.

Going from HHTDEYEYDEL [TGM1_Y134] to RKPDIYGRLAS [MCM4_Y459_E460G], the phosphorylation enrichment rises from 0.916 to 2.24.

First: RPGSGYTNIMQ [PKLR_Y564_R569Q]
Second: YIIFIYAMKKK [SLCO1B1_Y645_L643F]
The phosphorylation enrichment of the first is higher: 0.597 for the first, 0.287 for the second.

Going from LFDPDFMKVIL [CYP4A22_Y104_Y104F_YF] to SHLSSYTTHPQ [NIPBL_Y195_P192L], the phosphorylation enrichment falls from 1.23 to 0.419.

Compared with QEITTYRRLLE [KRT14_Y415_A413T], HEKKVYSFCGT [RPS6KA3_Y226_A225V] is higher in phosphorylation enrichment: 0.649 for the first, 0.742 for the second.

First: KAFDMYSGDVM [FAM3D_Y122]
Second: VATRWYQSPEL [CDKL5_Y177_R178Q]
The phosphorylation enrichment of the first is higher: 0.935 for the first, 0.443 for the second.

Compared with DNEAIYDICRC [TUBA4A_Y210_R215C], YQGGTYSKAST [FGG_Y380] is lower in phosphorylation enrichment: 6.51 for the first, 0.424 for the second.

DPEATYTTSGS [EPHA2_Y772_G777S] showed a phosphorylation enrichment of 0.633.
